From the supplement of paper PMC10126150
± gives the standard deviation of the averaged measurements.

System: ATP
Assay: switch fluorescence ratio, 500 uM ATP over buffer (Cy3 cluster intensity, sum of 5 cycles each) (fold (ratio)); higher = stronger signal-on switching upon ATP binding; sequences stand for … in TCGTCGGCAGCGTCAGATGTGTATAAGAGACAGTTTTTTTTTTTTTTTTTTTTTTTTT…TC
Conditions: aptamer strand: ATP DNA aptamer (quencher-CACCTGGGGGAGTATTGCGGAGGAAGG + anchor), 100 nM annealed; ATP concentration: 500 uM
In short: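 The quencher-labelled ATP aptamer, at 100 nM, was annealed to Cy3-labelled switching-strand clusters on a modified Illumina MiSeq flow-cell. The clusters were imaged in selection buffer, then after 15 min with 500 uM ATP at 22 °C, and this buffer/ATP cycle ran five times with NaOH stripping and re-annealing between runs. Per-cluster fluorescence ratios, summed target-cycle over summed buffer-cycle Cy3 intensity, were averaged per switch-domain sequence. Clusters outside 100-1000 RFU were excluded.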
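Note: ATP exposure 15 min at 22 °C before imaging.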

TAGAATAGGT
switch fluorescence ratio: 0.978 ± 0.011

TAGAATAGTC
switch fluorescence ratio: 0.974 ± 0.01

TAGAATATAG
switch fluorescence ratio: 0.991 ± 0.0011

TAGAATCGCT
switch fluorescence ratio: 1 ± 0.049

TAGAATGTTT
switch fluorescence ratio: 1.02 ± 0.012

TAGAATTGAG
switch fluorescence ratio: 0.984 ± 0.022

TAGAATTGTG
switch fluorescence ratio: 1.21 ± 0.33

TAGACAATTT
switch fluorescence ratio: 1 ± 0.00074

TAGACAGCCA
switch fluorescence ratio: 1.02 ± 0.041

TAGACCTTAA
switch fluorescence ratio: 1.09 ± 0.029

TAGACGTTGG
switch fluorescence ratio: 1.02 ± 0.014

TAGAGAATAT
switch fluorescence ratio: 0.992 ± 0.026

TAGAGACCTG
switch fluorescence ratio: 1 ± 0.071

TAGAGAGCTT
switch fluorescence ratio: 0.986 ± 0.036

TAGAGAGGGC
switch fluorescence ratio: 1.011 ± 0.0093

TAGAGATGGG
switch fluorescence ratio: 1.02 ± 0.028

TAGAGATTAG
switch fluorescence ratio: 1 ± 0.038

TAGAGCGGGA
switch fluorescence ratio: 1.008 ± 0.0087

TAGAGCGTAT
switch fluorescence ratio: 1 ± 0.033

TAGAGCTAC
switch fluorescence ratio: 1.17 ± 0.049

TAGAGGAAGC
switch fluorescence ratio: 1 ± 0.011

TAGAGGACGA
switch fluorescence ratio: 1.04 ± 0.063

TAGAGGAGCT
switch fluorescence ratio: 1 ± 0.038

TAGAGGCGGG
switch fluorescence ratio: 0.981 ± 0.025

TAGAGGGGAG
switch fluorescence ratio: 1.02 ± 0.022

TAGAGGGTAC
switch fluorescence ratio: 1.19 ± 0.24

TAGAGGTG
switch fluorescence ratio: 1.11 ± 0.016

TAGAGTATCT
switch fluorescence ratio: 0.999 ± 0.027

TAGATAGTTT
switch fluorescence ratio: 0.981 ± 0.029

TAGATCTGGG
switch fluorescence ratio: 1.002 ± 0.0072

TAGATGAGGC
switch fluorescence ratio: 1.01 ± 0.061

TAGATGCAGT
switch fluorescence ratio: 1.04 ± 0.042

TAGATTTATT
switch fluorescence ratio: 0.995 ± 0.028

TAGATTTGAT
switch fluorescence ratio: 0.9664 ± 0.0028

TAGATTTGTA
switch fluorescence ratio: 1.01 ± 0.021

TAGCACGGCA
switch fluorescence ratio: 1.06 ± 0.029

TAGCACTGAG
switch fluorescence ratio: 1.05 ± 0.043

TAGCAGGTGG
switch fluorescence ratio: 1.15 ± 0.14

TAGCCGGCGT
switch fluorescence ratio: 1.01 ± 0.013

TAGCCGGGAC
switch fluorescence ratio: 1.25 ± 0.26

TAGCCGGTCG
switch fluorescence ratio: 0.9846 ± 0.0023

TAGCCGTCTG
switch fluorescence ratio: 1.04 ± 0.039

TAGCGATTAG
switch fluorescence ratio: 1.01 ± 0.036

TAGCGGTTCG
switch fluorescence ratio: 1.01 ± 0.034

TAGCGGTTTC
switch fluorescence ratio: 0.9746 ± 0.005

TAGCGTGTTG
switch fluorescence ratio: 1.02 ± 0.031

TAGCTCCGAC
switch fluorescence ratio: 1.399 ± 0.0031

TAGCTGAGGA
switch fluorescence ratio: 1.01 ± 0.032

TAGCTGCATG
switch fluorescence ratio: 1.01 ± 0.017

TAGGAACGAG
switch fluorescence ratio: 1 ± 0.024

TAGGAAGGTA
switch fluorescence ratio: 1.01 ± 0.018

TAGGAATTTT
switch fluorescence ratio: 0.984 ± 0.016

TAGGACGAGG
switch fluorescence ratio: 1.02 ± 0.021

TAGGAGAAGG
switch fluorescence ratio: 1.04 ± 0.036

TAGGAGAGTT
switch fluorescence ratio: 0.994 ± 0.036

TAGGAGATTT
switch fluorescence ratio: 0.998 ± 0.03

TAGGAGGGGG
switch fluorescence ratio: 0.995 ± 0.04

TAGGATATGG
switch fluorescence ratio: 1 ± 0.017

TAGGATCTGG
switch fluorescence ratio: 0.995 ± 0.027

TAGGATGGTG
switch fluorescence ratio: 1.03 ± 0.11

TAGGATGTCA
switch fluorescence ratio: 1.01 ± 0.027

TAGGATTCGA
switch fluorescence ratio: 0.964 ± 0.016

TAGGCACGCG
switch fluorescence ratio: 1.027 ± 0.01

TAGGCGGGGT
switch fluorescence ratio: 0.977 ± 0.05

TAGGCGTTGG
switch fluorescence ratio: 0.972 ± 0.033

TAGGCTGGGT
switch fluorescence ratio: 0.992 ± 0.014

TAGGGAAAGT
switch fluorescence ratio: 0.9607 ± 0.0022

TAGGGAACGC
switch fluorescence ratio: 1.02 ± 0.011

TAGGGAAGGT
switch fluorescence ratio: 1.01 ± 0.034

TAGGGAGAGG
switch fluorescence ratio: 0.9871 ± 0.0049

TAGGGAGGCA
switch fluorescence ratio: 1.01 ± 0.028

TAGGGAGGGG
switch fluorescence ratio: 0.973 ± 0.028

TAGGGATAG
switch fluorescence ratio: 1.01 ± 0.015

TAGGGATTCC
switch fluorescence ratio: 1.014 ± 0.0079

TAGGGCAGTA
switch fluorescence ratio: 0.99 ± 0.046

TAGGGCATAT
switch fluorescence ratio: 1.1 ± 0.073

TAGGGCCTTT
switch fluorescence ratio: 0.986 ± 0.023

TAGGGCGTGC
switch fluorescence ratio: 0.9973 ± 0.0061

TAGGGCGTTC
switch fluorescence ratio: 1.02 ± 0.079

TAGGGGAACG
switch fluorescence ratio: 0.959 ± 0.0096

TAGGGGACAG
switch fluorescence ratio: 1.03 ± 0.058

TAGGGGAGTA
switch fluorescence ratio: 0.9792 ± 0.0068

TAGGGGAGTT
switch fluorescence ratio: 0.978 ± 0.04

TAGGGGATAC
switch fluorescence ratio: 1.06 ± 0.01

TAGGGGATTT
switch fluorescence ratio: 1 ± 0.042

TAGGGGCTTG
switch fluorescence ratio: 1.014 ± 0.0011

TAGGGGGAGA
switch fluorescence ratio: 1.06 ± 0.043

TAGGGGGCGC
switch fluorescence ratio: 1.02 ± 0.039

TAGGGGTCGT
switch fluorescence ratio: 1 ± 0.02

TAGGGGTTCA
switch fluorescence ratio: 1.013 ± 0.002

TAGGGTAGTG
switch fluorescence ratio: 1.01 ± 0.021

TAGGGTATTT
switch fluorescence ratio: 0.987 ± 0.023

TAGGGTCATA
switch fluorescence ratio: 1.04 ± 0.077

TAGGGTCTGG
switch fluorescence ratio: 0.991 ± 0.04

TAGGGTGAGC
switch fluorescence ratio: 1.02 ± 0.019

TAGGGTGTGC
switch fluorescence ratio: 1 ± 0.037

TAGGGTGTTT
switch fluorescence ratio: 0.993 ± 0.034

TAGGGTTCAG
switch fluorescence ratio: 0.993 ± 0.029

TAGGGTTGTA
switch fluorescence ratio: 0.991 ± 0.04

TAGGTAATAT
switch fluorescence ratio: 1.02 ± 0.036

TAGGTATTGA
switch fluorescence ratio: 0.987 ± 0.024

TAGGTCCTTT
switch fluorescence ratio: 1.02 ± 0.02

TAGGTCGCCG
switch fluorescence ratio: 1 ± 0.044

TAGGTGACGG
switch fluorescence ratio: 0.991 ± 0.021

TAGGTGCCTG
switch fluorescence ratio: 1.07 ± 0.03

TAGGTGCTGG
switch fluorescence ratio: 1.04 ± 0.07

TAGGTGGGGA
switch fluorescence ratio: 1.01 ± 0.023

TAGGTGGGTT
switch fluorescence ratio: 0.982 ± 0.041

TAGGTTAAAG
switch fluorescence ratio: 1.01 ± 0.027

TAGGTTATGC
switch fluorescence ratio: 0.974 ± 0.036

TAGGTTGTCA
switch fluorescence ratio: 1.04 ± 0.024

TAGGTTGTCG
switch fluorescence ratio: 0.973 ± 0.077

TAGGTTTCAT
switch fluorescence ratio: 1.01 ± 0.014

TAGGTTTTGG
switch fluorescence ratio: 0.989 ± 0.035

TAGGTTTTTC
switch fluorescence ratio: 1.02 ± 0.078

TAGTAAATAT
switch fluorescence ratio: 1.006 ± 0.0041

TAGTAAGAGG
switch fluorescence ratio: 1 ± 0.013

TAGTAGAAAG
switch fluorescence ratio: 1.002 ± 0.0032

TAGTAGACGA
switch fluorescence ratio: 0.982 ± 0.034

TAGTAGCTTT
switch fluorescence ratio: 1.2 ± 0.31

TAGTAGGAGG
switch fluorescence ratio: 0.9721 ± 0.0061

TAGTAGGCGC
switch fluorescence ratio: 0.968 ± 0.035

TAGTAGTGGG
switch fluorescence ratio: 1.01 ± 0.022

TAGTAGTTGT
switch fluorescence ratio: 1 ± 0.013

TAGTATAGGC
switch fluorescence ratio: 1.14 ± 0.17

TAGTATAGTT
switch fluorescence ratio: 0.98 ± 0.016

TAGTATTTAG
switch fluorescence ratio: 1.024 ± 0.00096

TAGTCATTAC
switch fluorescence ratio: 1.12 ± 0.12

TAGTCCGGGC
switch fluorescence ratio: 1 ± 0.076

TAGTCTATTT
switch fluorescence ratio: 0.977 ± 0.02

TAGTCTGTGG
switch fluorescence ratio: 0.993 ± 0.033

TAGTGAAAGT
switch fluorescence ratio: 1.007 ± 0.0071

TAGTGAGAGC
switch fluorescence ratio: 1 ± 0.058

TAGTGAGGCT
switch fluorescence ratio: 0.996 ± 0.01

TAGTGAGGGG
switch fluorescence ratio: 0.979 ± 0.031

TAGTGATTAA
switch fluorescence ratio: 1.02 ± 0.044

TAGTGATTGG
switch fluorescence ratio: 1 ± 0.052

TAGTGCCAGA
switch fluorescence ratio: 1.01 ± 0.012

TAGTGCGATT
switch fluorescence ratio: 1.02 ± 0.015

TAGTGCTTTT
switch fluorescence ratio: 1.01 ± 0.025

TAGTGGTTTT
switch fluorescence ratio: 0.975 ± 0.02

TAGTGTGGGA
switch fluorescence ratio: 1 ± 0.043

TAGTGTGTAT
switch fluorescence ratio: 0.9516 ± 0.0088

TAGTGTGTGA
switch fluorescence ratio: 1.02 ± 0.014

TAGTTACACA
switch fluorescence ratio: 1.04 ± 0.035

TAGTTAGAAG
switch fluorescence ratio: 1.08 ± 0.13

TAGTTCACGG
switch fluorescence ratio: 0.9991 ± 0.0073

TAGTTCGACT
switch fluorescence ratio: 1.004 ± 0.0091

TAGTTCGTAT
switch fluorescence ratio: 0.986 ± 0.0099

TAGTTCTGAG
switch fluorescence ratio: 0.998 ± 0.006

TAGTTGAGAA
switch fluorescence ratio: 0.9851 ± 0.0075

TAGTTGCTTG
switch fluorescence ratio: 1.03 ± 0.054

TAGTTGGCAG
switch fluorescence ratio: 0.9773 ± 0.0054

TAGTTGGCCC
switch fluorescence ratio: 1.006 ± 0.0034

TAGTTGGGAG
switch fluorescence ratio: 0.973 ± 0.012

TAGTTGTAAG
switch fluorescence ratio: 0.994 ± 0.02

TAGTTTATGT
switch fluorescence ratio: 1.012 ± 0.0056

TAGTTTTAGA
switch fluorescence ratio: 0.98478 ± 9.2e-05

TAGTTTTTCA
switch fluorescence ratio: 1.01 ± 0.039

TAGTTTTTGG
switch fluorescence ratio: 0.994 ± 0.032

TATAAAAGGC
switch fluorescence ratio: 0.978 ± 0.045

TATAAACTGT
switch fluorescence ratio: 0.993 ± 0.015

TATAAAGAGA
switch fluorescence ratio: 0.9978 ± 0.0057

TATAAAGCGG
switch fluorescence ratio: 1.03 ± 0.048

TATAAAGTTG
switch fluorescence ratio: 1.01 ± 0.062

TATAACGGGA
switch fluorescence ratio: 1.05 ± 0.027

TATAAGAGTT
switch fluorescence ratio: 1.02 ± 0.035

TATAAGTTTT
switch fluorescence ratio: 0.9823 ± 0.0096

TATAATACTT
switch fluorescence ratio: 1.026 ± 0.0038

TATAATGTGG
switch fluorescence ratio: 0.967 ± 0.015

TATAATGTTT
switch fluorescence ratio: 1.02 ± 0.048

TATAATTGGT
switch fluorescence ratio: 0.9616 ± 0.007

TATACCATGG
switch fluorescence ratio: 0.971 ± 0.046

TATACCATTA
switch fluorescence ratio: 0.997 ± 0.051

TATACCCTTT
switch fluorescence ratio: 1 ± 0.052

TATACGACTT
switch fluorescence ratio: 1.03 ± 0.029

TATACGCTTG
switch fluorescence ratio: 1.001 ± 0.0079

TATACGGGGG
switch fluorescence ratio: 0.992 ± 0.049

TATACGTTTC
switch fluorescence ratio: 1.04 ± 0.028

TATACTGTAA
switch fluorescence ratio: 1.14 ± 0.031

TATAGAGGG
switch fluorescence ratio: 0.969 ± 0.011

TATAGCCGGG
switch fluorescence ratio: 1 ± 0.069

TATAGGACTA
switch fluorescence ratio: 1.01 ± 0.014

TATAGGCTTC
switch fluorescence ratio: 1 ± 0.023

TATAGGGTCA
switch fluorescence ratio: 0.979 ± 0.031

TATAGGTCGG
switch fluorescence ratio: 0.9695 ± 0.0057

TATAGGTTTG
switch fluorescence ratio: 1.01 ± 0.042

TATAGTGATG
switch fluorescence ratio: 1.01 ± 0.019

TATAGTTTGC
switch fluorescence ratio: 0.969 ± 0.026

TATATACGTT
switch fluorescence ratio: 1.04 ± 0.026

TATATAGGAA
switch fluorescence ratio: 1.018 ± 0.0064

TATATATAAA
switch fluorescence ratio: 1.09 ± 0.087

TATATCATTG
switch fluorescence ratio: 0.965 ± 0.011

TATATGAATA
switch fluorescence ratio: 1.006 ± 0.0023

TATATGAGAG
switch fluorescence ratio: 0.973 ± 0.017

TATATGGAGG
switch fluorescence ratio: 0.956 ± 0.032

TATATGTAGA
switch fluorescence ratio: 1.03 ± 0.011

TATATGTGTG
switch fluorescence ratio: 0.9661 ± 0.0073

TATATTATTA
switch fluorescence ratio: 0.985 ± 0.031

TATATTGACC
switch fluorescence ratio: 1.04 ± 0.03
